# In patent publication US20240010750A1 (Bayer, published 2024):
# Where two headings read alike, the source gives them in different places.
# T1: human alpha2-Antiplasmin (human, UniProt P08697 40-491)
# T1 construct: Bought (antibodies online, ABIN2544306); also called human A2AP; a2AP
# T1 sequence: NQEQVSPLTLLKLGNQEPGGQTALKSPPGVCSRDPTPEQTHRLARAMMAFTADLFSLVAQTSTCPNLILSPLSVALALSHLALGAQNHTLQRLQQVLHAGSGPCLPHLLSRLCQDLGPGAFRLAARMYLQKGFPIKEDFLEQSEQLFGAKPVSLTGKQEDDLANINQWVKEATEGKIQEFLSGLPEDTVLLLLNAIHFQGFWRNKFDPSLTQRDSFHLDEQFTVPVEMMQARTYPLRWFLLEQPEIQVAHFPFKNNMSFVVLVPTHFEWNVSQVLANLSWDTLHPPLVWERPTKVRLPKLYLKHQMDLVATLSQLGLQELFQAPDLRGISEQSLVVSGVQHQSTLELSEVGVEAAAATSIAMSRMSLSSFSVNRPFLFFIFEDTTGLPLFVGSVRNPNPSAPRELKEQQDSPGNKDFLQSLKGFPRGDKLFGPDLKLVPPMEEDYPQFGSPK
# T2: cynomolgus alpha2-Antiplasmin (cynomolgus (Macaca fascicularis), UniProt P08697 28-491 (human entry))
# T2 construct: Made in house in the same way as the rabbit protein; also called cynomolgus A2AP; Macaca fascicularis A2AP
# T2 chain: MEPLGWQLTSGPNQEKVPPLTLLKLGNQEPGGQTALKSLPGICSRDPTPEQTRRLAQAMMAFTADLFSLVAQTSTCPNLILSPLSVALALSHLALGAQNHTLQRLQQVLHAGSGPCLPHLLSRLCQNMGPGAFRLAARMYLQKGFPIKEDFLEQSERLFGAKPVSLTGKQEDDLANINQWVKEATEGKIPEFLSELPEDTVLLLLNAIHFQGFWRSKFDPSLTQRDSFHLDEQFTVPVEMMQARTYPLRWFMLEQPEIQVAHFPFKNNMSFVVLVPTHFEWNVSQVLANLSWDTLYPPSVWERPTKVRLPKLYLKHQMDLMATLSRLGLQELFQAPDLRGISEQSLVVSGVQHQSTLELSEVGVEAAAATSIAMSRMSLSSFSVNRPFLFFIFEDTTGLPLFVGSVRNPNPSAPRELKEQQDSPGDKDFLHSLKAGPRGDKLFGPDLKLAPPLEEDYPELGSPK
# T3: rabbit alpha2-Antiplasmin (rabbit (Oryctolagus cuniculus))
# T3 construct: Made in house in HEK293 cells, purified by Ni-IMAC and SEC (a His tag is implied but not described); also called rabbit A2AP; Oryctolagus cuniculus A2AP
# T3 chain: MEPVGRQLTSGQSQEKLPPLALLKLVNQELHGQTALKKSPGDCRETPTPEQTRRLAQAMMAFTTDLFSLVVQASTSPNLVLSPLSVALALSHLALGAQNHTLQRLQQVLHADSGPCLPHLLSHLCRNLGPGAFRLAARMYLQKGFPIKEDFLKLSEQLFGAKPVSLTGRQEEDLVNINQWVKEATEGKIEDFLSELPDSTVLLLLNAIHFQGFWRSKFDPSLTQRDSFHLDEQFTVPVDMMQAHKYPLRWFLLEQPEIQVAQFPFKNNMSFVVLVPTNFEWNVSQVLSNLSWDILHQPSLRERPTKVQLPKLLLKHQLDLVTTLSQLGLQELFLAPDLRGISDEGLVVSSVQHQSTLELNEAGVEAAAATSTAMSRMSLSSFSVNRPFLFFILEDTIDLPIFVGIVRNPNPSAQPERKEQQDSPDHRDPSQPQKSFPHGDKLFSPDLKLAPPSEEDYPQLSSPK
# What was measured:
# human alpha2-Antiplasmin [1] = target: T1, human alpha2-Antiplasmin; assay: ELISA, coated antigen, 1st exp.
# Procedure: (§1) A standard ELISA format was used for analyzing the binding affinity of Fabs of this invention to human and rabbit alpha-2-Antiplasmin, respectively. Antigens were coated to black 384 well Maxisorp microtiter plates (Nunc; catalogue number 460518), diluted to a concentration of 1 μg/ml in 1× Coating Buffer (Candor Bioscience; catalogue number 121125). Plates were incubated overnight at 4° C. After overnight incubation, plates were washed 2× with 50 μl/well using PBS+0.05% Tween 20. Following this, 50 μl/well of blocking buffer (Smart Block; Candor Bioscience; catalogue number 113500) was added and the plates were incubated for 1 hour at room temperature. Afterwards, plates were washed for 3× using […] PBS+0.05% Tween 20 buffer. Fabs of this invention were added at different concentrations in a final volume of 30 μl/well. Plates were incubated for 1 hour at room temperature. Following this incubation step, plates were washed for 3× using 50 μl/well of a PBS+0.05% Tween 20 buffer. For the detection of bound Fabs and full-length antibodies, the anti-Human Lambda Light Chains (Bound and Free)—Peroxidase antibody (Sigma; catalogue number A5175) was diluted by the factor of 1:10.000 in 10% Blocking Buffer. 30 μl/well of this diluted detection antibody was added and plates are incubated for 1 hour at room temperature. Following this incubation step, plates were washed for 3× using 50 μl/well of a PBS+0.05% Tween 20 buffer. As substrate, a mixture of 30 μl/well of 1:1000 diluted Amplex red (Invitrogen; catalogue number 12222; stock solution 10 mM in DMSO) and 1:10.000 of Hydrogen peroxide (Merck; catalogue number 107209; 30% stock solution) was added and the plates incubated for minutes in the dark.
# (§2) For measurement, the Infinite f500 reader (Tecan) was used. Measurement mode: Fluorescence; Top reading; Ex 535 nm; Em 590 nm.
# (§3) According to the methods described in Example 3 and Example 4, antibodies TPP-14323, TPP-14318, TPP-14314, TPP-14313, TPP-14308, TPP-14305, TPP-14303, TPP-14298, and TPP-14293 were tested for their ability to bind to and to block the activity of human alpha2-Antiplasmin in a dose-dependent manner. For each antibody, one dose response curve from two to three independent experiments performed in quadruplicate is shown as example in FIG. 7.1 to FIG. 7.18. (see Table 3.3)
# human alpha2-Antiplasmin [2] = target: T1, human alpha2-Antiplasmin; assay: ELISA, coated antigen, 2nd exp.
# Procedure: as §1, §2, §3
# human alpha2-Antiplasmin [3] = target: T1, human alpha2-Antiplasmin; assay: cell-based or functional assay
# human Plasmin = human Plasmin (human, UniProt P00747 97-580; P00747 581-810, limits assumed); assay: cell-based or functional assay
# Sequence of human Plasmin (P00747 97-580 limits assumed, chain 1 of 2): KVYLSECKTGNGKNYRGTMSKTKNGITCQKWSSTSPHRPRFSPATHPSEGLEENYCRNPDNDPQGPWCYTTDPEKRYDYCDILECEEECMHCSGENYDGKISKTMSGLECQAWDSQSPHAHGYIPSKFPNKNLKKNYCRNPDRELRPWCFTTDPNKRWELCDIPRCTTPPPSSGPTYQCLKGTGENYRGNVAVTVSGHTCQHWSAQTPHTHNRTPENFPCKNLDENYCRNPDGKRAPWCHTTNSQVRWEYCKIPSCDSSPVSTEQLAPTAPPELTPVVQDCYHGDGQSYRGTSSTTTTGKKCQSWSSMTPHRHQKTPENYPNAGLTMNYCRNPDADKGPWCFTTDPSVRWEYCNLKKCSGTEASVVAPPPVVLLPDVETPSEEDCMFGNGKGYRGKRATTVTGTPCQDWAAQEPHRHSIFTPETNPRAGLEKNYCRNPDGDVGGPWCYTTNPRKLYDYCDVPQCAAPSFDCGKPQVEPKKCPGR
# Sequence of human Plasmin (P00747 581-810 limits assumed, chain 2 of 2): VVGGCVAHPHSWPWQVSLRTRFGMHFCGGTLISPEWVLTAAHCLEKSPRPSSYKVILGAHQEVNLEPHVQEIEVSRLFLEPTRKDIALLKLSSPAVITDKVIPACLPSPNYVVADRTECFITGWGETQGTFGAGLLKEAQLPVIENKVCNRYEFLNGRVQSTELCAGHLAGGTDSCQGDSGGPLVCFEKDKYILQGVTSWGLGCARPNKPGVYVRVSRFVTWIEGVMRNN
# human alpha2-Antiplasmin [4] = target: T1, human alpha2-Antiplasmin; assay: ELISA, coated antigen, 3rd exp.
# Procedure: as §1, §2, §3
# human alpha2-Antiplasmin [5] = target: T1, human alpha2-Antiplasmin; assay: cell-based or functional assay; remark: listed apart in the source
# [6] = target: T2, cynomolgus alpha2-Antiplasmin; assay: SPR Biacore T200, antibody captured on protein G chip, A2AP as analyte, 25 C
# Procedure: (§4) Binding assays were performed on a Biacore T200 instrument at 25° C. with a protein G sensor chip and assay buffer HBS-EP+. Antibodies were captured to ˜150 RU and analytes were used at concentrations between 1.56 and 200 nM for full kinetics. As interaction partner, alpha2-Antiplasmin from human, cynomolgus and rabbit was used. Regeneration was performed with glycine-HCl pH 1.5. Kinetic parameters were derived by fitting experimental sensorgrams to a 1:1 Langmuir binding model.
# human alpha2-Antiplasmin [7] = target: T1, human alpha2-Antiplasmin; assay: as above
# Procedure: as §4
# [8] = target: T3, rabbit alpha2-Antiplasmin; assay: as above
# Procedure: as §4
# human alpha2-Antiplasmin [9] = target: T1, human alpha2-Antiplasmin; assay: cell-based or functional assay; remark: listed apart in the source
# human alpha2-Antiplasmin [10] = target: T1, human alpha2-Antiplasmin; assay: cell-based or functional assay; remark: listed apart in the source
# human alpha2-Antiplasmin [11] = target: T1, human alpha2-Antiplasmin; assay: ELISA (Example 3), human alpha2-Antiplasmin coated, RFU
# Procedure: as §1, with “As substrate, a mixture of 30 μl/well of 1:1000 diluted Amplex red (Invitrogen; catalogue number 12222; stock solution 10 mM in DMSO) and 1:10.000 of Hydrogen peroxide (Merck; catalogue number 107209; 30% stock solution) was added and the plates incubated for minutes in the dark.” left out
# as §2
# According to the method described in Example 3, these 12 antibodies were tested for ability to bind human and rabbit alpha2-Antiplasmin in a dose-dependent manner. Data generated were analyzed using the GraphPadPrism software. The binding activities of the antibodies were calculated as EC50 values. […]
# human alpha2-Antiplasmin [12] = target: T1, human alpha2-Antiplasmin; assay: cell-based or functional assay; remark: listed apart in the source
# human alpha2-Antiplasmin [13] = target: T1, human alpha2-Antiplasmin; assay: ELISA, coated antigen, quantified unpurified antibody, 3rd exp.
# Procedure: as §1, §2
# human alpha2-Antiplasmin [14] = target: T1, human alpha2-Antiplasmin; assay: ELISA, coated antigen, quantified unpurified antibody, 1st exp.
# human alpha2-Antiplasmin [15] = target: T1, human alpha2-Antiplasmin; assay: ELISA, coated antigen, quantified unpurified antibody, 2nd exp.
# human alpha2-Antiplasmin [16] = target: T1, human alpha2-Antiplasmin; assay: cell-based or functional assay; remark: listed apart in the source
Binder,EC50 (human alpha2-Antiplasmin [1]) [nM],EC50 (human alpha2-Antiplasmin [2]) [nM],"function blocking activity [IC50 M], 1st exp. (human alpha2-Antiplasmin [3]) [nM]","function blocking activity [IC50 M], 2nd exp. (human alpha2-Antiplasmin [3]) [nM]","function blocking activity [IC50 M], 3rd exp. (human alpha2-Antiplasmin [3]) [nM]","IC50 [M], inhibition of plasmin proteolytic activity (human Plasmin) [M]",EC50 (human alpha2-Antiplasmin [4]) [nM],Kd [6] [nM],Kd (human alpha2-Antiplasmin [7]) [nM],Kd [8] [nM],"function blocking activity [IC50 M], 1st exp. (human alpha2-Antiplasmin [12]) [nM]","function blocking activity [IC50 M], 2nd exp. (human alpha2-Antiplasmin [12]) [nM]",EC50 (human alpha2-Antiplasmin [14]) [nM],EC50 (human alpha2-Antiplasmin [15]) [nM],"IC50, A2AP function blocking assay (Example 10) (human alpha2-Antiplasmin [16]) [nM]",further results
"TPP-14305 hIgG1 (antibody, V domains shown) VH: EVQLLESGGGLVQPGGSLRLSCAASGFTFDDYAMSWVRQAPGKGLEWVSAIGTGGGTYYADSVKGRFTISRDNSKNTLYLQMNSLRAEDTAVYYCAREGYDSSGYYHLDYWGQGTLVTVSS VL: QSVLTQPPSASGTPGQRVTISCTGSSSNIGATYDVHWYQQLPGTAPKLLIYSNNQRPSGVPDRFSGSKSGTSASLAISGLRSEDEADYYCWAWDDSLSGWVFGGGTKLTVLG",15,16,64,69,66,> 2e-06,16,,,,,,,,,"EC50 (read off the curve); function blocking assay (Example 4), RFU of plasmin substrate cleavage (human alpha2-Antiplasmin [5]): ~60 nM"
"TPP-14314 hIgG1 (antibody, V domains shown, Human IgG1 lambda) VH: EVQLLESGGGLVQPGGSLRLSCAASGFTFDDYAMSWVRQAPGKGLEWVSAIGTGGGTYYADSVKGRFTISRDNSKNTLYLQMNSLRAEDTAVYYCAREYYDSSGYYHLVYWGQGTLVTVSS VL: QSVLTQPPSASGTPGQRVTISCTGSSSNIGATYDVHWYQQLPGTAPKLLIYSNNQRPSGVPDRFSGSKSGTSASLAISGLRSEDEADYYCAAWDVSLSGWVFGGGTKLTVL",8.1,82,68,73,69,> 2e-06,84,,,,,,,,,EC50 (read off the curve) (human alpha2-Antiplasmin [11]): ~8 nM
"TPP-17041 hIgG1 (antibody, V domains shown, Germline variant of TPP-14308) VH: EVQLLESGGGLVQPGGSLRLSCAASGFTFSDYAMSWVRQAPGKGLEWVSAIGTGGGTYYADSVKGRFTISRDNSKNTLYLQMNSLRAEDTAVYYCAREGYDSSGYYHLDYWGQGTLVTVSS VL: QSVLTQPPSASGTPGQRVTISCTGSSSNIGATYDVHWYQQLPGTAPKLLIYSNNQRPSGVPDRFSGSKSGTSASLAISGLRSEDEADYYCAAWDWSLSGWVFGGGTKLTVLG",,,,,,> 1e-05,,7.6,11,18,0.56,0.69,0.19,0.23,0.64,"EC50 (read off the curve); function blocking assay (Example 4), RFU of plasmin substrate cleavage (human alpha2-Antiplasmin [9]): ~0.5 nM"

# Now from value to binder, other results behind:
EC50 (human alpha2-Antiplasmin [1]) [nM],EC50 (human alpha2-Antiplasmin [2]) [nM],"function blocking activity [IC50 M], 1st exp. (human alpha2-Antiplasmin [3]) [nM]","function blocking activity [IC50 M], 2nd exp. (human alpha2-Antiplasmin [3]) [nM]","function blocking activity [IC50 M], 3rd exp. (human alpha2-Antiplasmin [3]) [nM]","IC50 [M], inhibition of plasmin proteolytic activity (human Plasmin) [M]",EC50 (human alpha2-Antiplasmin [4]) [nM],Kd [6] [nM],Kd (human alpha2-Antiplasmin [7]) [nM],Kd [8] [nM],"function blocking activity [IC50 M], 1st exp. (human alpha2-Antiplasmin [12]) [nM]","function blocking activity [IC50 M], 2nd exp. (human alpha2-Antiplasmin [12]) [nM]",EC50 (human alpha2-Antiplasmin [14]) [nM],EC50 (human alpha2-Antiplasmin [15]) [nM],"IC50, A2AP function blocking assay (Example 10) (human alpha2-Antiplasmin [16]) [nM]",Binder,further results
5.7,61,2.4,30,24,> 5e-06,60,3.1,3.9,7.8,,,,,,"TPP-14308 hIgG1 (antibody, V domains shown, starting point of the germlining) VH: EVQLLESGGGLVQPGGSLRLSCAASGFTFDDYAMSWVRQAPGKGLEWVSAIGTGGGTYYADSVKGRFTISRDNSKNTLYLQMNSLRAEDTAVYYCAREGYDSSGYYHLDYWGQGTLVTVSS VL: QSVLTQPPSASGTPGQRVTISCTGSSSNIGATYDVHWYQQLPGTAPKLLIYSNNQRPSGVPDRFSGSKSGTSASLAISGLRSEDEADYYCAAWDWSLSGWVFGGGTKLTVLG","EC50 (read off the curve); function blocking assay (Example 4), RFU of plasmin substrate cleavage; comparator curve [same curve in 8.4, D00008 8.6, 8.8, D00009 8.10, 8.12] (human alpha2-Antiplasmin [9]): ~2 nM; EC50 (read off the curve); function blocking assay (Example 4), RFU of plasmin substrate cleavage (human alpha2-Antiplasmin [10]): ~2 nM"
,,,,,> 1e-05,,13,18,17,0.33,0.44,0.11,0.16,0.33,"TPP-17051 hIgG1 (antibody, V domains shown, Germline variant of TPP-14308) VH: EVQLLESGGGLVQPGGSLRLSCAASGFTFDSYAMSWVRQAPGKGLEWVSAIGTGGSTYYADSVKGRFTISRDNSKNTLYLQMNSLRAEDTAVYYCAREGYDSSGYYHLDYWGQGTLVTVSS VL: QSVLTQPPSASGTPGQRVTISCTGSSSNIGATYDVHWYQQLPGTAPKLLIYSNNQRPSGVPDRFSGSKSGTSASLAISGLRSEDEADYYCAAWDWSLSGWVFGGGTKLTVLG",EC50 (human alpha2-Antiplasmin [13]): 0.22 nM
